In test [1] the target is RHDV GI.1b P domain of VP60, MBP fusion (rabbit hemorrhagic disease virus GI.1b (isolate RHDV-Ast89)). The test can be described thus: native gel or EMSA; nondenaturing PAGE of the MBP-P domain fusions, western blot with an anti-His tag monoclonal antibody; monomer band (calculated 85 kDa) and a slower band of the dimer.
The target of test [2] is RHDV GI.2 P domain loop-swap mutant L1´ (loop 1 of GI.1b), His-tagged MBP fusion (rabbit hemorrhagic disease virus GI.2 (isolate N-11)). Described as above.
Test [3] concerns the target RHDV GI.2 P domain loop-swap mutant L1´L4´ (loops 1 and 4 of GI.1b), His-tagged MBP fusion (rabbit hemorrhagic disease virus GI.2 (isolate N-11)). The test is described as above.
Test [4] addresses RHDV GI.2 P domain loop-swap mutant L1´L4´L5´ (loops 1, 4 and 5 of GI.1b), His-tagged MBP fusion (rabbit hemorrhagic disease virus GI.2 (isolate N-11)). Described as above.
For test [5], the target named is RHDV GI.2 P domain loop-swap mutant L2´ (loop 2 of GI.1b), His-tagged MBP fusion (rabbit hemorrhagic disease virus GI.2 (isolate N-11)). The test is described as above.
Test [6] deals with RHDV GI.2 P domain loop-swap mutant L3´ (loop 3 of GI.1b), His-tagged MBP fusion (rabbit hemorrhagic disease virus GI.2 (isolate N-11)). The description is as above.
For test [7], the target named is RHDV GI.2 P domain loop-swap mutant L4´ (loop 4 of GI.1b), His-tagged MBP fusion (rabbit hemorrhagic disease virus GI.2 (isolate N-11)). The test is described as above.
Test [8] deals with RHDV GI.2 P domain loop-swap mutant L4´L5´ (loops 4 and 5 of GI.1b), His-tagged MBP fusion (rabbit hemorrhagic disease virus GI.2 (isolate N-11)). Described as above.
The target of test [9] is RHDV GI.2 P domain loop-swap mutant L5´ (loop 5 of GI.1b), His-tagged MBP fusion (rabbit hemorrhagic disease virus GI.2 (isolate N-11)). The description is as above.
The target of test [10] is RHDV GI.2 P domain mutant N387A, MBP fusion (rabbit hemorrhagic disease virus GI.2 (isolate N-11)). The test can be described thus: native gel or EMSA; PAGE under denaturing or native conditions of the MBP-P domain point mutants; monomer and homodimer bands; BSA as negative control. Background: A gel shift assay detects complexes by their altered migration in electrophoresis.

The target in test [11] is RHDV GI.2 P domain mutant N387D, MBP fusion (rabbit hemorrhagic disease virus GI.2 (isolate N-11)). The description is as above.
The target in test [12] is RHDV GI.2 wild-type P domain of VP60 (isolate N-11), His-tagged MBP fusion (rabbit hemorrhagic disease virus GI.2 (isolate N-11)). Description: native gel or EMSA; nondenaturing PAGE of the MBP-P domain fusions, western blot with an anti-His tag monoclonal antibody; monomer band (calculated 85 kDa) and a slower band of the dimer.

As to “RHDV GI.1b P domain of VP60, MBP fusion (domain or fragment)”, in test [1], the stoichiometry N (commonly a count of units in the complex or per binding partner) is 2. In the case of “RHDV GI.2 P domain loop-swap mutant L1´ (loop 1 of GI.1b), His-tagged MBP fusion (domain or fragment)”, the stoichiometry N in [2] is 2.

For the substance “RHDV GI.2 P domain loop-swap mutant L1´L4´ (loops 1 and 4 of GI.1b), His-tagged MBP fusion (domain or fragment)”, the stoichiometry N in test [3] was 2.

On to “RHDV GI.2 P domain loop-swap mutant L1´L4´L5´ (loops 1, 4 and 5 of GI.1b), His-tagged MBP fusion (domain or fragment)”, for which the stoichiometry N in test [4] was 2.

With “RHDV GI.2 P domain loop-swap mutant L2´ (loop 2 of GI.1b), His-tagged MBP fusion (domain or fragment)”, the stoichiometry N in [5] is 2. Take “RHDV GI.2 P domain loop-swap mutant L3´ (loop 3 of GI.1b), His-tagged MBP fusion (domain or fragment)”: the stoichiometry N in test [6] was 2. Turning to “RHDV GI.2 P domain loop-swap mutant L4´ (loop 4 of GI.1b), His-tagged MBP fusion (domain or fragment)”, in test [7], the stoichiometry N is 2. Regarding “RHDV GI.2 P domain loop-swap mutant L4´L5´ (loops 4 and 5 of GI.1b), His-tagged MBP fusion (domain or fragment)”, in [8], the stoichiometry N is 2. In the case of “RHDV GI.2 P domain loop-swap mutant L5´ (loop 5 of GI.1b), His-tagged MBP fusion (domain or fragment)”, in test [9], the stoichiometry N was 2. For “RHDV GI.2 P domain mutant N387A, MBP fusion (domain or fragment)”, in [10], the stoichiometry N amounted to 2.

The substance “RHDV GI.2 P domain mutant N387D, MBP fusion (domain or fragment)” had a stoichiometry N in test [11] of 2.

Take “RHDV GI.2 wild-type P domain of VP60 (isolate N-11), His-tagged MBP fusion (domain or fragment)”: in test [12], the stoichiometry N is 2.
